For this assay, the target named is T1, p80 TNFR (endogenous) (UniProt P20333 23-461, limits assumed).
T1 construct: whole, on cells; also called TNFR2; p75
T1 sequence (looked up): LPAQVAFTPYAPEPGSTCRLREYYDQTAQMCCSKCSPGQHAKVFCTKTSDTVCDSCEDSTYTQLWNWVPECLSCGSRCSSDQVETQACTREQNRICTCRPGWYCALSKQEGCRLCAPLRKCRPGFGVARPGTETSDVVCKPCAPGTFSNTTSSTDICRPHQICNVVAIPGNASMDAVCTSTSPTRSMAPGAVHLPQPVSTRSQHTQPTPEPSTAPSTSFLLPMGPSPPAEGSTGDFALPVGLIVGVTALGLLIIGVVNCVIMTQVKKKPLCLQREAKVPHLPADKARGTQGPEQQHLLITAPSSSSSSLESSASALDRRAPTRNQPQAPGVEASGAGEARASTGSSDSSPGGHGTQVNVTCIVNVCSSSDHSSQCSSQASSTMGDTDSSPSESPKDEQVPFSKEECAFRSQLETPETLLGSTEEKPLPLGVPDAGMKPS
Put plainly: DTSSP crosslinking of H9 cells, anti-p60 immunoprecipitation, Western blot. Here is the method: H9 lymphoma cells were washed and resuspended in PBS. […] Cells were then treated with 2 mM of the crosslinker DTSSP (Pierce) for 30 minutes and the reaction was quenched with 20 mM Tris.Cl [pH 7.5] for 15 minutes on ice. The cells were lysed in 150 mM NaCl, 20 mM Tris.Cl [pH 7.5], 1 mM EDTA, 30 mM NaF, 2 mM b-glycerophosphate and 1 mM sodium orthovanadate with protease inhibitors added (Boehringer Mannheim). […] Densitometry was performed with a Kodak Image Station 440.

B1: p60 TNFR (endogenous) (receptor, UniProt P19438 30-455, looked up)
chain: LVPHLGDREKRDSVCPQGKYIHPQNNSICCTKCHKGTYLYNDCPGPGQDTDCRECESGSFTASENHLRHCLSCSKCRKEMGQVEISSCTVDRDTVCGCRKNQYRHYWSENLFQCFNCSLCLNGTVHLSCQEKQNTVCTCHAGFFLRENECVSCSNCKKSLECTKLCLPQIENVKGTEDSGTTVLLPLVIFFGLCLLSLLFIGLMYRYQRWKSKLYSIVCGKSTPEKEGELEGTTTKPLAPNPSFSPTPGFTPTLGFSPVPSSTFTSSSTYTPGDCPNFAAPRREVAPPYQGADPILATALASDPIPNPLQKWEDSAHKPQSLDTDDPATLYAVVENVPPLRWKEFVRRLGLSDHEIDRLELQNGRCLREAQYSMLATWRRRTPRREATLELLGRVLRDMDLLGCLEDIEEALCGPAALPPAPSLLR
notes: whole, on cells; also called endogenous p60 receptor; TNFR1
On to B1, for which the binding result is reported as “no binding”.

These data come from US20030108992A1 (US Dept. of Health and Human Services, published 2003).
